The results in this text go back to publication PMC12711026 (PLOS Pathogens, 2025).

Where no end group is shown, it is not given here. The star is where a group is joined. Biotin = O=C1N[C@H]2[C@H](CS[C@H]2CCCCC(=O)*)N1

In this test the target is T1, carrier-free recombinant human Netrin-1-His (human, UniProt O95631 25-604).
T1 construct: also called rNetrin-1-His; rNetrin-1
The experiment in a line: pull-down; Pierce Pull-Down Biotinylated Protein:Protein Interaction Kit; 150 μL of 0.5 mg/mL biotinylated peptide on streptavidin gel; 100 μL of 1 ng/μL recombinant LHBs with 0, 1, 2 or 4 ng/μL rNetrin-1-His; western blot. The settings on record: both partners purified.

Biotin-NSKMYLKTRA (also called C-terminal HBS of LIPG) [biotinylated LIPG-CTD HBS peptide (amino acids 331–340)]: the binding result is given as “binds”.
